Substitutions are numbered along the chain they refer to.

The experiment addresses pre-existing anti-drug antibodies (ADA) present in human sera. The experiment can be described thus: ELISA pre-existing ADA binding assay, confirmatory setup, test molecule coated, 20 human sera.

B1: PRO2922 (scFv)
scFv: DIQMTQSPSSLSASVGDRVTITCQASESIYSSLAWYQQKPGKAPKLLIYLASTLASGVPSRFSGSGSGTDFTLTISSLQPEDFATYYCQSTDYTTSTHRNSFGTGTKVTVLGGGGGSGGGGSGGGGSGGGGSEVQLVESGGGRVQPGGSLRLSCAASGFSFSTTYYMCWVRQAPGKGLEWIGCTNTASSVRTYYATWAKGRFTISRDNSKNTVYLQMNSLRAEDTAVYYCARDMGFADYALNLWGQGTLVTVSS
B1: the % positives of total tested serum samples is 10% and the No of positive serum samples above 30% CCP (serum samples) came to 2.

B2: PRO2918 (scFv)
scFv: B1 scFv with V227T, L249Q
The molecule B2 gave a % positives of total tested serum samples of 25% and a No of positive serum samples above 30% CCP (serum samples) of 5.

B3: PRO2920 (scFv)
scFv: B1 scFv with L249Q
For B3, the % positives of total tested serum samples worked out at 10% and the No of positive serum samples above 30% CCP (serum samples) was 2.

B4: PRO2919 (scFv)
scFv: B1 scFv with V227T
With B4, the % positives of total tested serum samples is 5% and the No of positive serum samples above 30% CCP (serum samples) amounted to 1.

B5: PRO2907 (scFv)
scFv: DIQMTQSPASLSASVGDRVTITCQASQSIGTYLAWYQQKPGKPPKLLIYRAFILASGVPSRFSGSGSGTDFTLTISSLQPEDFATYYCQSNFYSDSTTIGPNAFGTGTKVTVLGGGGGSGGGGSGGGGSGGGGSEVQLVESGGGRVQPGGSLRLSCAASGFSFNSDYWIYWVRQAPGKGLEWIASIYGGSSGNTQYASWAQGRFTISRDNSKNTVYLQMNSLRAEDTAVYFCARGYVDYGGATDLWGQGTLVTVSS
Regarding B5, the % positives of total tested serum samples was 15% and the No of positive serum samples above 30% CCP (serum samples) came out at 3.

B6: PRO2905 (scFv)
scFv: B5 scFv with L251Q
B6 registered a % positives of total tested serum samples of 20% and a No of positive serum samples above 30% CCP (serum samples) of 7.

B7: PRO2903 (scFv)
scFv: B5 scFv with V229T, L251Q
The molecule B7 displayed a % positives of total tested serum samples of 30% and a No of positive serum samples above 30% CCP (serum samples) of 6.

These data come from patent publication US20240084039A1.
